For the assay, the target named is H4K20R recombinant nucleosomes containing FLAG-tagged H2A and H4K20R. The assay is described as follows: pull-down.

From paper PMC11216177 come the findings set out here.

B1: Set8 (enzyme)
chain: MIMVRRRQRPAKEAASSSSGGASSGSGIPVDQALPLNVAGNLLEDQYFASPKRKDCRLMKVTQNGQLPEATMMAHNKDNKAGRTIGVPLATRSQTRTIENFFKANAAAKDSQKTIHTEEQLNLGNQELKLDDEELNGQIKLDDEVLKLADKQINENLPFADEVDAKAEQKLMDEELQQVVEELLFDGSSRASSNSPFYQHDMDVMQEIQQTPEIPHIKKVTEPLEGLGSLADFQTHRSALRDSHSSTHSSSTDNIFLQEPVLTLDIDRTPTKASSIKINRSFELAGAVFSSPPSVLNACLNGRFNQIVSLNGQKEALDLPHFDLDQHDSSSCDSGVACGLTANTESPAGQPRRRKPATPHRILCPSPIKTALKVTGGICKVGSADPLSPRKSPRKLPTTTAAVAACKSRRRLNQPKPQAPYQPQLQKPPSQQQQQQQDDIVVVLDDDDDEGDDEDDVRALIKAAEERENQNKAPATANSNKAGMKTMLKPAPVKSKTKSKGPTKGQPPLPLAATNGNREMTDFFPVRRSVRKTKTAVKEEWMRGLEQAVLEERCDGLQVRHFMGKGRGVVADRPFKRNEFVVEYVGDLISIGEAAEREKRYALDENAGCYMYYFKHKSQQYCIDATVDTGKLGRLINHSRAGNLMTKVVLIKQRPHLVLLAKDDIEPGEELTYDYGDRSKESLLHHPWLAF
For the molecule B1, the fold binding to H4K20R nucleosomes relative to WT nucleosomes was 14.5 fold.

B2: GFP-L(3)mbt (natural protein)
chain: MMALKMLYRGPSSRLENLIEKIQATKEITNNDMYSTHTSSSYSPSISDGTMTPNSHHLIGAPTAAGQEDHPTEGKINGGADGEDLPKPKRLPHFHHHHHHHYHHQQALKIANKLRKINKEAKMGATAGGGATGAASKFDKLTGEGIKSRGDGSYQCQFCEKTFPRLGYLKHHVQSHAEHLPFKCEYCSKLFKHKRSRDRHKKLHTNERNYKCPHCEAAFSRSDHLKIHMKTHDIQKPFQCSMCNRGYNTAAALTSHMQKHKKNAAILAAGGNPNALNYSPRSTGSASASVSSNGSLQKRRYALALASDSSPSRMDFPKRSRSNHVGGTTTTATPTPLLRCSYCPKVTEFSSLEQLNAHLQSVHEQPQTQAVKTPVQEGEGFQLSCEYCTMKFGNIAGLFQHMRSTHMDRLSSPNSYYEHFNRLATAGTFSPRLALDLPKIKPDLGSPERESRPAEDDLPTDLSNNKRRPLTPNPQAQTPLAPPSAPPGVFFCNQCNAGLPDFESFRNHLKSHIAEGMQLVCPHCGMSLPEQSEFERHVVGHFLITGSEFNCSSSCGKSFAKSEDLQQHLLSEHVLTLLKCSLCSELCESRMAMQLHLACAHSQETKLLRCSACLELFRSDAEFHVHVKTRHQLGGHPTLGATSSAPTNPLQCMFCRAVCSSELEMHFHLAAHARQFRCPSCPETFHVEFLLDRHMQSQHGGVKDKEANSPNMGSLYVNALLPPLAAAAAAAAATNNNSSIIDYNVAFKGLFGGASGGAGSGGGGAQSGGAPPSANKFYSPLQVDTNALKAQTSPHPALMYGLSQRYLMEMYAAKSTSPSGNEGVGNSQPPAPQATAPPPPPNASTATFSCGMCERQDLRSEAELHSHRKLAHNLKTGVSLRCAYCAGNFKSRAELEQHMKSCHNSTGKHKCLICDEVFPSPAILAEHKLQHSKVGQSGKCSHCGQPLEDVAAFRAHLSEHGSDGASLPLACICCRQTLHSEFELSLHAKFHTKSSSSGGSLQEPVCALCLEPLPDATEGPAKLCDKCCRKHNLNGKRGKHSEPATSLPAPPSAFVENRCNLCKMILPHAQKLQEHLVEHTFAGTEQRGFNCYICSAVFTAPGGLLNHMGEHGAHSRPYDCNLCPEKFFFRAELEHHQRGHELRPQARPPAAKVEVPSIRNTSPGQSPVRSPTIVKQELYETDTVESAGVEDEPENHPDEEEYIEVEQMPHETRPSGIGSQLERSTSSA
On to B2, for which the fold binding to H4K20R nucleosomes compared with WT nucleosomes is 1.8 fold.
